The source of these data is patent publication US20250042943A1, “FAP DETECTION” (THE UNIVERSITY COURT OF THE UNIVERSITY OF EDINBURGH, priority 2021, published 2025).

One assay concerns the target T1, FAP (Homo sapiens, UniProt Q12884).
T1 sequence (Q12884 24-760 limits assumed): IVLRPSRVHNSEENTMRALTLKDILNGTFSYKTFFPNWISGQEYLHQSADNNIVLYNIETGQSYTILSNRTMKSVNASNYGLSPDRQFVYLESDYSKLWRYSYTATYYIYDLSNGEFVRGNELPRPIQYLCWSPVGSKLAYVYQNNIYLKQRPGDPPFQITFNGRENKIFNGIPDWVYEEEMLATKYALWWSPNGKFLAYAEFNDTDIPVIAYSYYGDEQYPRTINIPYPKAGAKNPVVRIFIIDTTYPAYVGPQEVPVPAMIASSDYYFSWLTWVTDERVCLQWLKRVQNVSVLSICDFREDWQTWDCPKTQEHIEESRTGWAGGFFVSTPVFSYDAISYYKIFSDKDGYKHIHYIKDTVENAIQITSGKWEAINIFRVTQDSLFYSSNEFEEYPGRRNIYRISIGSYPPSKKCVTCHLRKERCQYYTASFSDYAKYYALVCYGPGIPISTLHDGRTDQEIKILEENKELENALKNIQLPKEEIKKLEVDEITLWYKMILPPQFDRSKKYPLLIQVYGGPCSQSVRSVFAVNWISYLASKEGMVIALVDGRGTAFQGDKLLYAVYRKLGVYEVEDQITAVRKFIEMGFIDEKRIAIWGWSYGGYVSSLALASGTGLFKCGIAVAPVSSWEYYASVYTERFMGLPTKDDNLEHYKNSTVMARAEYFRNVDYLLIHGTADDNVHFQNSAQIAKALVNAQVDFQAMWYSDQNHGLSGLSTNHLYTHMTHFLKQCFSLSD
Particulars: Bainbridge et al; cited from earlier work.

For the next assay, the target named is T2, rhPREP (Homo sapiens, UniProt P48147).
T2 sequence (P48147 1-710): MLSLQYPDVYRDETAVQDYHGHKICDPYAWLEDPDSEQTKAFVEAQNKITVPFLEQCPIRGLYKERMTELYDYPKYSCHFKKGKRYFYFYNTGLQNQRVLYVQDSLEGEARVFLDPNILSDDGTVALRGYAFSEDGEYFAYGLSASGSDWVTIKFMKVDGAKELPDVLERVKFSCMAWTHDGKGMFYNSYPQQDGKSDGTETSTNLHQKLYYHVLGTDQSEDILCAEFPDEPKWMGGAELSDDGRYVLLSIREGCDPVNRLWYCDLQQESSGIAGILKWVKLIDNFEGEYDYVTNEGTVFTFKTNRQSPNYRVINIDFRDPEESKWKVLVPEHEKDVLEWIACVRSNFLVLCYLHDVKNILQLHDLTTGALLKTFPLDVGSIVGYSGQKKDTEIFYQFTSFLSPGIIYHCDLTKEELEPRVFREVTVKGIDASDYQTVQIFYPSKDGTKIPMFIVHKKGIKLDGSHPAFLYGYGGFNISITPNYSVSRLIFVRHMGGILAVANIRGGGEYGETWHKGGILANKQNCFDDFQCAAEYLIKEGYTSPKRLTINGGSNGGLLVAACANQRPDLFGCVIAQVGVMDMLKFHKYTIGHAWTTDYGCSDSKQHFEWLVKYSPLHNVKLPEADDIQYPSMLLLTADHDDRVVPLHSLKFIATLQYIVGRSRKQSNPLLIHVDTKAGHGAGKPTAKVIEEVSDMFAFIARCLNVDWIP
Briefly: Probe cleavage by recombinant human PREP. It counts as biochemical. Particulars: probe 5 μM, enzyme 0.1 μg/ml, read 480/530 nm.

In another assay the target is T3, rhFAP (Homo sapiens, UniProt Q12884).
T3 sequence (Q12884 1-760): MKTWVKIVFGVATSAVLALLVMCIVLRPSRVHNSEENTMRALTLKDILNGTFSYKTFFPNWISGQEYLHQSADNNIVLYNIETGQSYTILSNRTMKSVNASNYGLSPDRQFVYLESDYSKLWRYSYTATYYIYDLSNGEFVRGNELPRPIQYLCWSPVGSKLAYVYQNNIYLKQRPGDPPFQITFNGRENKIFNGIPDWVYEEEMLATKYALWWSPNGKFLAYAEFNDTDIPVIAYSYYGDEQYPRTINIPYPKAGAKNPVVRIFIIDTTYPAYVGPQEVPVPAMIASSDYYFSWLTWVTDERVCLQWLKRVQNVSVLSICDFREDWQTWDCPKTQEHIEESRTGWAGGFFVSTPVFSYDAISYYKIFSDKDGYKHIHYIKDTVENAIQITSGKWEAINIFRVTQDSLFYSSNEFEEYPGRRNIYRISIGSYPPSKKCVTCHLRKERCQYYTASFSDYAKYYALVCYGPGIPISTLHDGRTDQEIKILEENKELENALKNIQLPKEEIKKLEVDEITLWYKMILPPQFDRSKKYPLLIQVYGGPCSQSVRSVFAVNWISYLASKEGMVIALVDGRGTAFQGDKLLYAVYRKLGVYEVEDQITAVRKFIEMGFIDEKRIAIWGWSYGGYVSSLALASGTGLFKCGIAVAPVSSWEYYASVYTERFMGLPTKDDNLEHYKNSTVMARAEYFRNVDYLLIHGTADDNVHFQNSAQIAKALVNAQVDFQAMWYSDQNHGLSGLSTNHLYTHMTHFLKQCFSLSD
Briefly: Probe cleavage by recombinant human FAP (fluorescence read). It is filed as biochemical.

In assay [1] the test system is activated neutrophil lysate. As to the kind of experiment: Assessment on activated neutrophil lysate. Conditions: data not shown.
Another assay addresses rhDPPIV (Homo sapiens, UniProt P27487). As to the kind of experiment: Probe cleavage by recombinant human DPPIV (exopeptidase activity). Particulars: probe 5 μM, enzyme 0.1 μg/ml, read 480/530 nm. It counts as biochemical.

Chain of rhDPPIV (P27487 whole entry): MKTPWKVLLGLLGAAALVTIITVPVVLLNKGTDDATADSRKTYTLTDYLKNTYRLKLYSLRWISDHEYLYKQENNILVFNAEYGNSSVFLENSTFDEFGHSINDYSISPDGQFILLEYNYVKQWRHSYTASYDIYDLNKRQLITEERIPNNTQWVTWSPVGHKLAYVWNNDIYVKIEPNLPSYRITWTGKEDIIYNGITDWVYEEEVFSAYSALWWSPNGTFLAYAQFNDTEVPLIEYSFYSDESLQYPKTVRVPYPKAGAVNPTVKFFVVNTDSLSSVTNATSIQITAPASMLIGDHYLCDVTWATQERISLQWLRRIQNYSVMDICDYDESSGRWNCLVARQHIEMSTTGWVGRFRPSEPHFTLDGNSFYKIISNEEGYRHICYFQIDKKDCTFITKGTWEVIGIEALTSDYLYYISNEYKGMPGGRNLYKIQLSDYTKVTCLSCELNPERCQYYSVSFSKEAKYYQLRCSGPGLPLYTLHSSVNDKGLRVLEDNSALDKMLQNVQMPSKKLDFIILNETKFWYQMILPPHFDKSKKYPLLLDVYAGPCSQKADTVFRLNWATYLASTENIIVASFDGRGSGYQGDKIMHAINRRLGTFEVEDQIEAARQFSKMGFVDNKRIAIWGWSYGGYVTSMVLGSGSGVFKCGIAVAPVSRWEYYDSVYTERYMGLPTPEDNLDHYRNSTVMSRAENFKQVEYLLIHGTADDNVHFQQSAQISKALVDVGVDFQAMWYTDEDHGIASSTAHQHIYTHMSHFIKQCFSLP

As for VsPSQG, the “specificity over PREP” value at FAP is listed as “specificity over PREP”.

Consider “Lys(MethylRed)-Val-(D)Ser-Pro-Ser-Gln-Gly-Lys(5-FAM)-[Peg2-(D)Lys]3-NH2 [FAP-sP, reference compound]”, for which the “cleavage by rhPREP” value with rhPREP is “no cleavage”; with rhPREP (listed as FAP-sp), “no rhPREP cleavage”. Moreover, the “signal (relative fluorescence intensity) with rhFAP” value with rhFAP (comparison between probe iterations) is recorded as “improved signal characteristics”. Besides, the “FAP specificity (over PREP)” value with rhFAP (from recombinant enzyme assessment) was “FAP specificity”. In addition, the “MALDI-TOF analysis of probe after activated neutrophil lysate” value in assay [1] is “all FAP-sP probe was cleaved”. The “cleavage by rhDPPIV (exopeptidase activity)” value with rhDPPIV was “no cleavage”.
